# Measurements published in the supplement of paper PMC9112550, “Optimization of the antimicrobial peptide Bac7 by deep mutational scanning” (BMC Biology, 2022).
# Test system: Escherichia coli TOP10
# Test: shrunken log2 fold change of peptide-encoding DNA abundance (4.5 h post-induction vs induction); higher = less antimicrobial activity (less host growth inhibition)
# Details: time post-induction: 4.5 h; library: site-saturation at positions 5, 18, 19, 20
# 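Note: peptides expressed intracellularly from a pBAD plasmid library in pooled LB shake-flask culture, induced with 0.3% L-arabinose, DNA abundance read by NGS, three biological replicates, DESeq2 with apeglm shrinkage.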
row,Sequence,shrunken log2 fold change
1,RRIRMRPPRLPRPRPRPQTNPRP,0.462
2,RRIRARPPRLPRPRPRPSVLPRP,-0.167
3,RRIRARPPRLPRPRPRPGRTPRP,0.683
4,RRIRQRPPRLPRPRPRPWLWPRP,0.145
5,RRIRKRPPRLPRPRPRPACDPRP,0.861
6,RRIRPRPPRLPRPRPRPLNLPRP,0.177
7,RRIRHRPPRLPRPRPRPNEEPRP,-0.00146
8,RRIRNRPPRLPRPRPRPQKAPRP,-0.0017
9,RRIRIRPPRLPRPRPRPYWIPRP,-0.568
10,RRIRARPPRLPRPRPRPPLNPRP,0.612
11,RRIRMRPPRLPRPRPRPIIWPRP,-0.0321
12,RRIRRRPPRLPRPRPRPMLAPRP,0.983
13,RRIRYRPPRLPRPRPRPCNEPRP,0.0341
14,RRIRIRPPRLPRPRPRPFMIPRP,-0.73
15,RRIRLRPPRLPRPRPRPRYQPRP,-0.0283
16,RRIRYRPPRLPRPRPRPITHPRP,-0.211
17,RRIRTRPPRLPRPRPRPGCFPRP,0.0805
18,RRIRVRPPRLPRPRPRPKWCPRP,0.289
19,RRIRLRPPRLPRPRPRPTILPRP,0.0347
20,RRIRHRPPRLPRPRPRPFHFPRP,-0.403

row,Sequence,shrunken log2 fold change
1,RRIRPRPPRLPRPRPRPFNSPRP,-0.764
2,RRIRKRPPRLPRPRPRPNSQPRP,0.27
3,RRIRLRPPRLPRPRPRPFKKPRP,0.0344
4,RRIRERPPRLPRPRPRPRARPRP,0.233
5,RRIRKRPPRLPRPRPRPGPCPRP,0.393
6,RRIRWRPPRLPRPRPRPYEAPRP,-0.569
7,RRIRLRPPRLPRPRPRPRFIPRP,-0.243
8,RRIRMRPPRLPRPRPRPQSPPRP,0.213
9,RRIRWRPPRLPRPRPRPFNLPRP,0.0233
10,RRIRIRPPRLPRPRPRPTDPPRP,-0.223
11,RRIRTRPPRLPRPRPRPGEKPRP,-0.0135
12,RRIRKRPPRLPRPRPRPHRVPRP,0.34
13,RRIRKRPPRLPRPRPRPECKPRP,0.506
14,RRIRNRPPRLPRPRPRPYGMPRP,-0.331
15,RRIRDRPPRLPRPRPRPVSLPRP,-0.442
16,RRIRARPPRLPRPRPRPEDNPRP,0.132
17,RRIRYRPPRLPRPRPRPKSHPRP,0.49
18,RRIRFRPPRLPRPRPRPRMIPRP,-0.517
19,RRIRSRPPRLPRPRPRPCILPRP,-0.241
20,RRIRIRPPRLPRPRPRPSEWPRP,0.151

row,Sequence,shrunken log2 fold change
1,RRIRVRPPRLPRPRPRPVPPPRP,0.27
2,RRIRIRPPRLPRPRPRPPTGPRP,0.209
3,RRIRGRPPRLPRPRPRPMGEPRP,0.902
4,RRIRGRPPRLPRPRPRPDWTPRP,0.316
5,RRIRLRPPRLPRPRPRPADGPRP,-0.082
6,RRIRIRPPRLPRPRPRPQKYPRP,-0.784
7,RRIRLRPPRLPRPRPRPKDQPRP,-0.271
8,RRIRQRPPRLPRPRPRPNNKPRP,-0.721
9,RRIRARPPRLPRPRPRPWTNPRP,0.124
10,RRIRARPPRLPRPRPRPQESPRP,0.0266
11,RRIRLRPPRLPRPRPRPLKRPRP,-0.0716
12,RRIRFRPPRLPRPRPRPMKAPRP,0.035
13,RRIRDRPPRLPRPRPRPAFVPRP,-0.114
14,RRIRIRPPRLPRPRPRPENPPRP,-0.695
15,RRIRQRPPRLPRPRPRPCIQPRP,-0.118
16,RRIRARPPRLPRPRPRPGGVPRP,0.626
17,RRIRIRPPRLPRPRPRPVFEPRP,0.0673
18,RRIRPRPPRLPRPRPRPCFYPRP,-0.242
19,RRIRTRPPRLPRPRPRPYESPRP,-0.00247
20,RRIRFRPPRLPRPRPRPINTPRP,-0.761
